# ± gives the uncertainty stated by the source.
# Experiment: self-splicing fitness, log relative to wild type (ln ratio); higher = more splicing; Tetrahymena group I intron in knt gene, E. coli kanamycin selection, DiMSum; sequences stand for … in CUCUCU…GGAGGGAAAAGUUAUCAGGCAUGCACCUGGUAGCUAGUCUUUAAACCAAUAGAUUGCAUCGGUUUAAAAGGCAAGACCGUCAAAUUGCGGGAAAGGGGUCAACAGCCGUUCAGUACCAAGUCUCAGGGGAAACUUUGAGAUGGCCUUGCAAAGGGUAUGGUAAUAAGCUGACGGACAUGGUCCUAACCACGCAGCCAAGUCCUAAGUCAACAGAUCUUCUGUUGAUAUGGAUGCAGUUCACAGACUAAAUGUCGGUCGGGGAAGAUGUAUUCUUCUCAUAAGAUAUAGUCGGACCUCUCCUUAAUGGGAGCUAGCGGAUGAAGUGAUGCAACACUGGAGCCGCUGGGAACUAAUUUGUAUGCGAAAGUAUAUUGAUUAGUUUUGGAGUACUCGUGGUCG
# Outline: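 Colonies from six replicate transformations of E. coli BL21(DE3) were pooled and amplicon-sequenced on an Illumina HiSeq 2500. The library placed an intron with all eight P1ex-region nucleotides randomised inside the knt kanamycin-resistance gene on pET-22b(+), and cells grew overnight at 37°C or 30°C on LB agar with or without 25 μg/mL kanamycin (plus 100 μg/mL carbenicillin, 50 μM IPTG, 0.2% rhamnose). Fitness is the DiMSum error-weighted combination of wild-type-normalised replicate fold changes, kanamycin versus none.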
Sequence,self-splicing fitness (ln) (30 °C),self-splicing fitness (ln) (37 °C)
GAUAAGCAAUAUUACGACCC,-0.0888 ± 0.28,-0.582 ± 0.37
GAUAAGCAAUAUUACGUGGU,-4.24 ± 0.19,-2.35 ± 0.15
CUGAAGCAAUAUUACGCUCC,-2.74 ± 0.34,
UAUCAGCAAUAUUACGCUAU,-2.29 ± 0.11,-1.74 ± 0.1
CUCGAGCAAUAUUACGACAA,-2.69 ± 0.19,-2.65 ± 0.19
CGAGAGCAAUAUUACGUAUG,-3.68 ± 0.29,-1.49 ± 0.21
GUGUAGCAAUAUUACGAAUC,-1.43 ± 0.17,-0.973 ± 0.14
GAUGAGCAAUAUUACGCAUA,-2.68 ± 0.21,-1.98 ± 0.21
CUACAGCAAUAUUACGCUCA,-4.47 ± 0.42,-2.6 ± 0.39
AACGAGCAAUAUUACGGUAC,,-1.34 ± 0.22
CAGGAGCAAUAUUACGCUCG,-3.55 ± 0.34,-1.37 ± 0.33
UGAGAGCAAUAUUACGGCUA,-1.67 ± 0.25,-0.532 ± 0.35
GGCCAGCAAUAUUACGCACC,-2.17 ± 0.12,-0.636 ± 0.14
GAUCAGCAAUAUUACGGCAC,-0.826 ± 0.099,0.413 ± 0.17
UUAUAGCAAUAUUACGUCCA,-1.54 ± 0.26,-0.846 ± 0.29
GUGUAGCAAUAUUACGUAAC,-1.66 ± 0.14,-0.0998 ± 0.14
CGAAAGCAAUAUUACGAUAA,-2.44 ± 0.17,-0.695 ± 0.12
CCAAAGCAAUAUUACGACGG,-3.1 ± 0.14,-2.43 ± 0.19
GUCCAGCAAUAUUACGCCCA,0.224 ± 0.26,-0.451 ± 0.21
GAAUAGCAAUAUUACGACCU,-0.378 ± 0.11,0.363 ± 0.13
GAUCAGCAAUAUUACGUAUC,-3.17 ± 0.21,-2.62 ± 0.21
CCUAAGCAAUAUUACGGUAG,-1.27 ± 0.078,-0.941 ± 0.097
CCCUAGCAAUAUUACGUUAG,-3.73 ± 0.22,-2.36 ± 0.18
GUUUAGCAAUAUUACGCGCA,-0.466 ± 0.1,-0.363 ± 0.12
AGUUAGCAAUAUUACGUGCA,-1.6 ± 0.14,-0.22 ± 0.15
GACGAGCAAUAUUACGUUAC,,-0.804 ± 0.25
UAAGAGCAAUAUUACGUGUA,-2.36 ± 0.36,-2.21 ± 0.27

Sequence,self-splicing fitness (ln) (30 °C),self-splicing fitness (ln) (37 °C)
AGAAAGCAAUAUUACGUUUG,-2.48 ± 0.14,-2.24 ± 0.21
CCAUAGCAAUAUUACGCUGC,-3.84 ± 0.3,-2.25 ± 0.27
CUGUAGCAAUAUUACGUACC,,-0.725 ± 0.38
GCUUAGCAAUAUUACGCUGC,-3.09 ± 0.35,-2.38 ± 0.42
GGCCAGCAAUAUUACGACCC,,-1.48 ± 0.44
GAUGAGCAAUAUUACGGUUA,-2.77 ± 0.28,-2.47 ± 0.25
UCAAAGCAAUAUUACGCCUC,,-1.91 ± 0.37
CUUAAGCAAUAUUACGAUUG,-1.68 ± 0.12,-1.11 ± 0.13
CACGAGCAAUAUUACGUUAG,-2.94 ± 0.16,-2.64 ± 0.18
GGAAAGCAAUAUUACGUCAC,-2.13 ± 0.22,-1.81 ± 0.32
UUUCAGCAAUAUUACGAACC,,-1.08 ± 0.38
UAUUAGCAAUAUUACGUCAA,-1.86 ± 0.21,-1.34 ± 0.24
CUAUAGCAAUAUUACGUACU,-3.66 ± 0.47,
CAUUAGCAAUAUUACGAGCU,-2.57 ± 0.33,-2.7 ± 0.44
UAUAAGCAAUAUUACGAUCA,-0.251 ± 0.1,0.847 ± 0.11
UCUUAGCAAUAUUACGGCUA,-2.85 ± 0.41,-2.34 ± 0.42
CAUUAGCAAUAUUACGGUCC,,-1.72 ± 0.34
AUGGAGCAAUAUUACGAUUC,-2.21 ± 0.3,
UGCUAGCAAUAUUACGAACA,-0.29 ± 0.12,0.199 ± 0.13
UUGCAGCAAUAUUACGGGGU,-4.28 ± 0.2,-2.51 ± 0.18
CUCGAGCAAUAUUACGGCCA,-2.34 ± 0.24,-3.47 ± 0.35
UGUUAGCAAUAUUACGCUAA,-2.05 ± 0.4,
CCAUAGCAAUAUUACGGUAA,-3.53 ± 0.33,-3.26 ± 0.35
CCUCAGCAAUAUUACGCACU,-3.26 ± 0.18,-1.63 ± 0.2
AAUGAGCAAUAUUACGCCCA,-2.56 ± 0.3,-1.75 ± 0.32
UACUAGCAAUAUUACGGCAG,-0.408 ± 0.075,0.134 ± 0.12
CACUAGCAAUAUUACGAGGU,-5.22 ± 0.45,-2.6 ± 0.23

Sequence,self-splicing fitness (ln) (30 °C),self-splicing fitness (ln) (37 °C)
UUGCAGCAAUAUUACGAAAA,-1.02 ± 0.12,-0.432 ± 0.12
GCCGAGCAAUAUUACGGAUU,-1.37 ± 0.08,-0.945 ± 0.092
CUCCAGCAAUAUUACGUCUC,-2.97 ± 0.17,-3.71 ± 0.33
GGAAAGCAAUAUUACGUACA,-0.523 ± 0.14,6.9e-05 ± 0.15
CGCUAGCAAUAUUACGGGGA,-2.93 ± 0.32,-1.95 ± 0.32
GAACAGCAAUAUUACGGGGC,-3.05 ± 0.15,-3.3 ± 0.21
CCGAAGCAAUAUUACGUCGU,-1.94 ± 0.074,-0.687 ± 0.077
AUCGAGCAAUAUUACGCCGA,-3.08 ± 0.34,
CCUCAGCAAUAUUACGAUGC,-4.19 ± 0.24,-2.15 ± 0.3
UGACAGCAAUAUUACGUACA,-0.21 ± 0.087,0.281 ± 0.12
ACGCAGCAAUAUUACGAGCA,-1.58 ± 0.096,-1.2 ± 0.11
AAUAAGCAAUAUUACGCGUC,-1.45 ± 0.13,-1.15 ± 0.16
ACUUAGCAAUAUUACGGGAG,-1.75 ± 0.072,-1.3 ± 0.085
AAUUAGCAAUAUUACGAUCA,-0.335 ± 0.28,-0.16 ± 0.22
AUAAAGCAAUAUUACGUACC,0.0438 ± 0.19,-0.16 ± 0.4
AACGAGCAAUAUUACGUGAC,,-2.76 ± 0.23
UAAGAGCAAUAUUACGAUCG,-3.62 ± 0.17,-1.53 ± 0.18
UGUCAGCAAUAUUACGCAUC,-2.61 ± 0.12,-1.57 ± 0.11
GGUGAGCAAUAUUACGUGCU,-1.66 ± 0.18,-1.74 ± 0.37
AGCAAGCAAUAUUACGAGAG,-3.11 ± 0.2,-2.42 ± 0.25
AUGUAGCAAUAUUACGCAAG,-1.8 ± 0.14,-0.627 ± 0.14
UCUUAGCAAUAUUACGUCUG,-2.67 ± 0.22,-2.95 ± 0.37
AUCAAGCAAUAUUACGGUUU,-1.29 ± 0.073,-0.35 ± 0.075
ACUAAGCAAUAUUACGACGG,-0.271 ± 0.074,0.203 ± 0.094
CGGAAGCAAUAUUACGCCGG,-0.726 ± 0.15,0.698 ± 0.19
